From patent US8076094

What was measured:
[1] = biological target: GST-H3 1-44 (UniProt P68431)
[2] = system: GST control protein [GST: P08515]
[3] = biological target: GST-H3 1-15 T11A (UniProt P68431)
[4] = biological target: histone H3 in nucleosomes purified from HeLa cells (UniProt P68431)

Myc-PRK1, immunoprecipitated from 293 cell lysates
phosphorylation in in vitro kinase assay (32P, SDS-PAGE, autoradiography) [1]: GST-H3 1-44 is phosphorylated by PRK1
phosphorylation in in vitro kinase assay (32P, SDS-PAGE, autoradiography) [2]: The GST control protein is not phosphorylated, thus demonstrating specificity

purified recombinant PRK1 (ProQinase GmbH)
phosphorylation in in vitro kinase assay [3]: mutation of threonine 11 to alanine in H3 1-15 (H3 1-15 T11A) abolishes phosphorylation
phosphorylation in in vitro kinase assay, Western blot with α-phosphoH3T11 [4]: PRK1 phosphorylates nucleosomes at H3T11
